Measured values from the supplement of paper PMC9170038.

Legend:
[1] = system: MS2 coat protein; assay: apparent KD of MS2 coat protein; designed switch direction (-1 OFF switch, 1 ON switch): -1; higher = weaker reporter binding; conditions: Eterna round: R98
Experimental: (§1)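 RNA-MaP: designed FMN/MS2 RNA switches (84 nt design region) are transcribed on-chip within common flanks and titrated with SNAP-549-labelled MS2 coat protein (about 1-3000 nM) in 100 mM Tris pH 7.5, 80 mM KCl, 4 mM MgCl2, without or with 200 uM FMN. Median apparent KD per design; activation ratio = KD,OFF / KD,ON.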

[2] = system: MS2 coat protein; assay: apparent KD of MS2 coat protein; higher = weaker reporter binding; conditions: Eterna round: R101
Experimental: as §1

Sequence	apparent KD of MS2 coat protein ([1]; input ligand: FMN 200 uM) [nM]	apparent KD of MS2 coat protein ([1]; input ligand: none) [nM]	apparent KD of MS2 coat protein ([2]; input ligand: FMN 200 uM) [nM]	apparent KD of MS2 coat protein ([2]; input ligand: none) [nM]
GUCACGAAUGUAGGAUAUCGAGUGGAUAACACUCGAGAAGGACAUGAGGAUCACCCAUGUCAAAUGAAAGAUAAUAAACGUGAC [Exclsuion NG 1/3-B2]	20.6	15.8		
AGAUGACAAAGUCAUCUCGCUCUGACAUGAGGAUCACCCAUGUAGGAUAUAUUACUCAAAGAGUAAUAGAAGGACAUGUUUCUG [Ex NG2 #64]	65.5	36		
CUUACUUUGUAGAAGGGUGACAUGAGGAUCACCCAUGUGCGUGGCCUGAAAGACCAGGGUACGCCACAGGAUAUACAAAGUAAG [Esatatina] (puzzle (switch architecture): Inverted Same State NG 2)			26.1	15.3
ACACGUCGUGAGAAGGAGGAUCACCCUUUCGAAAGAAAUAGCCACCGUGAAAACGGUGGCAAAUCCUAGGAUAUCACGACGUGA [#SharedSequence - IExNG2: 4] (puzzle (switch architecture): Inverted Exclusion NG 2)			41.8	551
CUGAAGUCUGACCCUCGAAACAUGAGGAUCACCCAUGUAGUCAGAAGGCGAUUGUGAGCAGGAAUCGAGGAUAUGAACUAGUUU [EternaBot1300] (puzzle (switch architecture): Inverted Exclusion NG 3)			9.99	
ACAGGUCGUGAGAAGGAGAGUGGCACCGUCGAAAGACGGUGCAACUAGAAACCUAGAGGAUCACCCUAGGAUAUCACGACCUGA [#SharedSequence - IExNG2: 11] (puzzle (switch architecture): Inverted Exclusion NG 2)			6.46	6.32
UUGCUCAAUUGGGCAGGGACCUCACAUGAGGAUCACCCAUGUCAGGAUAUCCUAGUUUGGACGUAGGAGAAGGGACGGAGUAUC [Usanat]	250	167		
CACCUAAAUCCUAGAGGAUCACCCUAGGAUAUCACCGUCGAGGUGCCAUAAUGGCACCUCGACGGUGAGAAGGAGGGUAAAUAA [#SharedSequence - SLExNG3: 9] (puzzle (switch architecture): Small Loop Exclusion NG 3)			6.41	5.82
CAGAUAAAAGUGAGGUCGUCGACAUGAGGAUCACCCAUGUACGAGGAUAUGUAAUAUACGGUAUAGCAGAAGGCGUAUGGGUGU [Edrageer]	120	30.5		
GGUACUCAAAGAGUACCAAUACGAACAUGAGGAUCACCCAUGUAGGAUAUGCUACUCAAAGAGUAGCAGAAGGACAUGUGCCUA [OmeiMod 7 - Jieux - Exclusion NG 3]	422	38.7		
GUUAUCUCAUGUUCGACGGACAUGAGGAUCACCCAUGUACCUUAGGAUAUUGAUGAAAUAUGGCGCAAGAAGGAAGGUAACGCU [EternaBot964] (puzzle (switch architecture): Exclusion NG 3)			7.51	
AAAGAUUUUUAAGGAUAUCAGUGGCAAAGCCACUGAGAAGGUGAGGAUCACCCACCUACGUGACCCUGGAAACAGGGUCACGAA [#SharedSequence - ExNG1-14] (puzzle (switch architecture): Exclusion NG 1)			14.7	13.2
AAUAAACAAUAAAAGACUGGAGCAAACUUUUGAGGAUCACCCAGAAGGCGUCACCUAAUAGGUGACGAGGAUAUGGAGCUCCAG [#SharedSequence IExNG# - 4] (puzzle (switch architecture): Inverted Exclusion NG 3)			135	17.3
UAUAUAUAGGCAGGAUAUACAUGUAUAUAUAAUUUAUUAUAUAUUAUUACAUGAGGAUCACCCAUGUAGAAGGGCCAUAUUAUA [LRO037_Exclusion NG 2]	51.2	30.1		
AAAUAAAUUGAAGGAUAUGACCCUCGAGGUGACUAAAAGUCACCUCGAGGGUCAGAAGGUCGAGGAUCACCCGACCUAAAUAAA [#SharedSequence SLExNG1: 4-1] (puzzle (switch architecture): Small Loop Exclusion NG 1)			8.19	7.16
AAUAAUUCUCAAGGAUAUCAGUGGCAAAGCCACUGAGAAGGUGAGGAUCACCCACCUACGUGACGCUGGAAACAGCGUCACGAA [#SharedSequence ExNG1 - 34] (puzzle (switch architecture): Exclusion NG 1)			164	30.5
GUCCCUACAUGAGGAUCACCCAUGUGGGCGGUAAGGAGCCCACAGGAUAUGCGAAGGAGGACAUAGCAGAAGGGUGGUGUUCAG [Erenerbe] (puzzle (switch architecture): Same State NG 3)			33.5	308
